The values that follow come from article PMC3997432, “A Truncated Form of Rod Photoreceptor PDE6 β-Subunit Causes Autosomal Dominant Congenital Stationary Night Blindness by Interfering with the Inhibitory Activity of the γ-Subunit” (PLoS ONE, 2014).

The target in test [1] is trypsin-activated bovine PDE6 (tPDE6), PDE6αβ catalytic subunits lacking the inhibitory Pγ subunits (bovine) (UniProt P11541).
Test [2] concerns the target T1, PDE6β1-313 (PDE6-specific N-terminal portion of the human rod cGMP phosphodiesterase type 6 β-subunit … (human, UniProt P35913-1 1-313)).
T1 construct: rod cGMP phosphodiesterase type 6 β-subunit (PDE6β), human, residues 1-313; contains the GAFa domain and a portion of the GAFb domain; amplified from a human retinal cDNA library; Cloned into pET15b with NdeI/BamHI; no removal of the tag is described; also called His6-tagged PDE6β1-313; truncated PDE6β
Briefly: other fluorescence titration; CysBC-Pγ24-45 (50 nM) in 1 ml of 100 mM PBS buffer (pH 7.5), increasing concentrations of PDE6β1-313 added; excitation 445 nm, emission 490 nm; fit to a hyperbola. The conditions noted are these: both partners purified.

No end group written: not given here. *: point of attachment. BC = 3-(bromoacetyl)-7-diethyl-aminocoumarin, CCN(CC)c1ccc2cc(C(=O)C*)c(=O)oc2c1

trypsin-activated bovine PDE6 (tPDE6), PDE6αβ catalytic subunits lacking the inhibitory Pγ subunits (bovine), sequence (P11541 whole entry, chain 1 of 2): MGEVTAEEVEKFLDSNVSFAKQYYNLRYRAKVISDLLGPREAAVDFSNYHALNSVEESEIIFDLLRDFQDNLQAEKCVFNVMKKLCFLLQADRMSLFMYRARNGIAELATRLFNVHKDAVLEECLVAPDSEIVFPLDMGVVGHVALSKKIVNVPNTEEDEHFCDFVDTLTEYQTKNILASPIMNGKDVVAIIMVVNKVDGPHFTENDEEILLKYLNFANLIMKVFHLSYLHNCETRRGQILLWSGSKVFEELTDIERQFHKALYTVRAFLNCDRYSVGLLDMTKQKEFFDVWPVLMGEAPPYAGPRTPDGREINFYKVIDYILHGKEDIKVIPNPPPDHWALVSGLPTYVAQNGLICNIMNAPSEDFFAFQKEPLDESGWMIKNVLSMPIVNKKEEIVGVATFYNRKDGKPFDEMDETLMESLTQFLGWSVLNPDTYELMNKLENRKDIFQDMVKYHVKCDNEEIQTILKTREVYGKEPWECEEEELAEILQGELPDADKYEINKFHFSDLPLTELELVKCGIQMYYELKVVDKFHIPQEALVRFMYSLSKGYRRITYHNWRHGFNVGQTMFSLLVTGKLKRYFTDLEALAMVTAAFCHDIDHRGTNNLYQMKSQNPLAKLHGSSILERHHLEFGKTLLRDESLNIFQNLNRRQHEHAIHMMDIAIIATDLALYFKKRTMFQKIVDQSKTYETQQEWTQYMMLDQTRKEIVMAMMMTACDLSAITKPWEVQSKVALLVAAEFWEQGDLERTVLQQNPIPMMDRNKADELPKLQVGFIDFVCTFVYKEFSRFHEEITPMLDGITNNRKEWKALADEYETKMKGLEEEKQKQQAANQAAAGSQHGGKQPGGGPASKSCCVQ
trypsin-activated bovine PDE6 (tPDE6), PDE6αβ catalytic subunits lacking the inhibitory Pγ subunits (bovine), sequence (P23439 whole entry, chain 2 of 2, further chain): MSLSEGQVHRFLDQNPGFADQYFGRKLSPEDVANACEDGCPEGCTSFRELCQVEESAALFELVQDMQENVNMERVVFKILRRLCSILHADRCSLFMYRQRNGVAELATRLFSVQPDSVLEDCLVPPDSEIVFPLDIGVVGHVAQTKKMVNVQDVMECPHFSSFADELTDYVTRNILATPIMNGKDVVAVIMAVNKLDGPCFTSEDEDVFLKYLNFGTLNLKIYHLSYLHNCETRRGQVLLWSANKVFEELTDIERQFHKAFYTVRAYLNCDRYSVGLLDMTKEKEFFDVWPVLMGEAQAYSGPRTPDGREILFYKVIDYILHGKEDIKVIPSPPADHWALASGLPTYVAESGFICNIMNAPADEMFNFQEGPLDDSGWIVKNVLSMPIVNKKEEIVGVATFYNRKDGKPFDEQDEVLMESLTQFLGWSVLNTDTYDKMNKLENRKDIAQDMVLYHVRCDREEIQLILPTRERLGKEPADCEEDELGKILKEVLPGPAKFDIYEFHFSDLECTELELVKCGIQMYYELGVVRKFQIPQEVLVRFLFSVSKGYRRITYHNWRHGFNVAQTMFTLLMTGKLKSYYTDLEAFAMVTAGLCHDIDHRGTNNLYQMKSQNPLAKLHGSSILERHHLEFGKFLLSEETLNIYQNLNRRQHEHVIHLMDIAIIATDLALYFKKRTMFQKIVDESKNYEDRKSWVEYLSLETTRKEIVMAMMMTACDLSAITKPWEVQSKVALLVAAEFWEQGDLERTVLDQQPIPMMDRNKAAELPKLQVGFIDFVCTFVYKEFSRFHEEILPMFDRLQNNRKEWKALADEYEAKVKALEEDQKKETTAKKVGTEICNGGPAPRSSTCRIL
T1 sequence (P35913 1-313, stated change not applied): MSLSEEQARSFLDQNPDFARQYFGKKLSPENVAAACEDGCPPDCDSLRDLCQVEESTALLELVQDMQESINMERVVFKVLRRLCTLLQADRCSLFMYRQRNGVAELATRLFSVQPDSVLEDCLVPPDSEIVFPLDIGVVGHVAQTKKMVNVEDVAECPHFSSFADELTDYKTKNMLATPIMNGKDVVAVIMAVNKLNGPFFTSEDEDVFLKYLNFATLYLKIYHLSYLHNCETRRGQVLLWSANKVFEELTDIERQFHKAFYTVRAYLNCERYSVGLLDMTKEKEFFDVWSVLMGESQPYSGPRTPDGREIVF

B1: Recombinant bovine rod Pγ-subunit (PDE6 inhibitory γ-subunit) (natural protein)
chain: MNLEPPKAEIRSATRVMGGPVTPRKGPPKFKQRQTRQFKSKPPKKGVQGFGDDIPGMEGLGTDITVICPWEAFNHLELHELAQYGII
On to B1, for which, in test [1], the IC50 of the inhibition of tPDE6 (50 pM) activity ([3H]cGMP hydrolysis) by increasing concentrations of Pγ, in the absence of PDE6β1-313 was 0.53 nM and the IC50 of the inhibition of tPDE6 (50 pM) activity ([3H]cGMP hydrolysis) by increasing concentrations of Pγ, in the presence of 2 µM PDE6β1-313 is 1.6 nM.

B2: CysBC-Pγ24-45 (Cys-Pγ24-45 peptide labeled at the N-terminal Cys with 3-(bromoacetyl)-7-diethyl-aminocoumarin) (peptide)
peptide: C(BC)RKGPPKFKQRQTRQFKSKPPKK
notes: Cys added at the N-terminus of the peptide to carry the probe (Cys-Pγ24-45); also called fluorescently labeled Pγ24-45; polycationic region of Pγ; source: synthetic peptide
As usually defined, the Kd is the constant that tells how readily two partners part at equilibrium. For the molecule B2, in test [2], the Kd stood at 320 nM.
